Molecular target: T1, BLyS (B-lymphocyte stimulator) (UniProt Q9Y275 134-285)
T1 construct: Endogenous BLyS in the serum of human SLE patients; The complex with atacicept was detected by sandwich ELISA
Test: ELISA of atacicept/BLyS complex in serum of dosed SLE patients (subcutaneous, Study 1)
Procedure: Pharmacokinetics were assessed by measuring serum levels of free atacicept (Table 2a), atacicept/BLyS complex (Table 3a), and composite atacicept (defined as free atacicept+atacicept-BLyS complex, Table 4a). Serum levels of each of these were quantified using an enzyme-linked immunosorbant assay. Serum was incubated with a biotin-conjugated mouse mAb specific for atacicept (free or total atacicept detection) (ZymoGenetics, Inc., Seattle, Wash.) or biotin-conjugated goat polyclonal antibodies specific for either BLyS or atacicept (atacicept/BLyS complex detection) (R & D Systems, Minneapolis, Minn.), immobilized on a streptavidin-coated microplate (Adaltis, Montreal, Quebec). […] In all three assays, atacicept serum levels were detected and quantified using standard […] methods, i.e., after washing tetramethylbenzidine (TMB) was added as HRP substrate (Sigma-Aldrich, St. Louis, Mo.). The reaction was halted after 20 minutes using 0.5 M sulfuric acid and the absorbance recorded at 450 nm. […] All samples were measured in triplicate. […] The lower limits of quantification (LLOQ) of the assays were 15.6 ng/mL for free atacicept, 5 U/mL for atacicept-BLyS complex (1 U/mL corresponding to 1.82 ng/mL atacicept-0.44 ng/mL BLyS in a 3:1 molar ratio), and 25 ng/mL for the composite analytes. […]

T1 sequence (Q9Y275 134-285 limits assumed): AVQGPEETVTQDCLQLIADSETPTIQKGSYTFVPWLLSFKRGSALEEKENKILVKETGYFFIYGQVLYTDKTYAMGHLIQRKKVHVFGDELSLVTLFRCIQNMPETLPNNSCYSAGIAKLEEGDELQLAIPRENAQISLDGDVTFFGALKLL

B1: atacicept (Fc fusion)
chain: AMRSCPEEQYWDPLLGTCMSCKTICNHQSQRTCAAFCRSLSCRKEQGKFYDHLLRDCISCASICGQHPKQCAYFCENKLRSEPKSSDKTHTCPPCPAPEAEGAPSVFLFPPKPKDTLMISRTPEVTCVVVDVSHEDPEVKFNWYVDGVEVHNAKTKPREEQYNSTYRVVSVLTVLHQDWLNGKEYKCKVSNKALPSSIEKTISKAKGQPREPQVYTLPPSRDELTKNQVSLTCLVKGFYPSDIAVEWESNGQPENNYKTTPPVLDSDGSFFLYSKLTVDKSRWQQGNVFSCSVMHEALHNHYTQKSLSLSPGK
modifications: Fc-linked homodimer in the drug; one chain is given.
notes: also called TACI-Ig; TACI-Fc5
B1: binds.

From patent US20090186040A1 (published 2009)
